Reference: US20240166765A1 (ICONIC THERAPEUTICS, published 2024)
Read-outs that look alike come from different tables or passages of the source.

T1: pig TF ECD-His (pig TF-His) protein (pig (Sus scrofa))
T1 construct: Extracellular domain with a C-terminal TG-His6 tag, used as analyte in Biacore; also called pTF
T1 chain: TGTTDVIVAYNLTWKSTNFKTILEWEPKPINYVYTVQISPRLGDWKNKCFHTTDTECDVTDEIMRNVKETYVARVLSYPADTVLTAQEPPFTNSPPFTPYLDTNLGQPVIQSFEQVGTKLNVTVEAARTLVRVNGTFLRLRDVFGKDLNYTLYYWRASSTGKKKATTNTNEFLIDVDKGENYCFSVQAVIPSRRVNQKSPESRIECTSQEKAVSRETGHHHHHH

T2: pig TF-His (pig (Sus scrofa))
T2 construct: also called pig TF ECD-His; pTF
T2 chain: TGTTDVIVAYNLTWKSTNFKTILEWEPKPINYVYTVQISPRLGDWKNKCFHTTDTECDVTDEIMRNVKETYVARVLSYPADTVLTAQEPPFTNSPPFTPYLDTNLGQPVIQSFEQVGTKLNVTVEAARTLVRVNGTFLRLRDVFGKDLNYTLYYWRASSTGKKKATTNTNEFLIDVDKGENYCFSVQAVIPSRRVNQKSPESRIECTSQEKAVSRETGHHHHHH

T3: h1-107_r (human/rat chimera)
T3 construct: on HEK293 cells
T3 chain: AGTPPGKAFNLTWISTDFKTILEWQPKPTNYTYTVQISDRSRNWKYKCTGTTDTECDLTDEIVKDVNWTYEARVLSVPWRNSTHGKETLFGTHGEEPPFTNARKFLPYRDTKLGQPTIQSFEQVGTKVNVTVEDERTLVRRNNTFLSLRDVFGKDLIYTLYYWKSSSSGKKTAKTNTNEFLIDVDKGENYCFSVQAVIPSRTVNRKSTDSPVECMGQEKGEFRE

T4: hTF_N171H_T197K (human, UniProt P13726 33-251)
T4 construct: on HEK293 cells
T4 chain: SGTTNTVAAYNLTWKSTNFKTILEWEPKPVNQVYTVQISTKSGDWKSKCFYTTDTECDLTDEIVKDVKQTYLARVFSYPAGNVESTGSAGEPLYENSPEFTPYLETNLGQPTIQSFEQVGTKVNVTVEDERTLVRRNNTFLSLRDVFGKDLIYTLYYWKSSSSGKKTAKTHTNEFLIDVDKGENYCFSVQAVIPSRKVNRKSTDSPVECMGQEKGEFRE


Columns and labels:
[1] = molecular target: T5, human Tissue Factor (hTF), endogenously expressed on human TF-positive cells (human, UniProt P13726 33-295); experiment: cell-based or functional assay
[2] = molecular target: T5, human Tissue Factor (hTF), endogenously …; experiment: flow cytometry competition on A431 cells, 100 nM unlabelled antibody, competitor 20 nM 25A-Alexa488
[3] = molecular target: T1, pig TF ECD-His (pig TF-His) protein; experiment: Biacore, antibody captured by anti-human IgG on CM5 chip, pig TF-His as analyte
[4] = molecular target: T5, human Tissue Factor (hTF), endogenously …; experiment: flow cytometry competition on A431 cells, 100 nM unlabelled antibody, competitor 20 nM 43Ea-Alexa488
rabbit TF-His = molecular target: T6, rabbit TF-His (rabbit (Oryctolagus cuniculus), UniProt P24055 33-250); experiment: SPR (Biacore), antibody captured by anti-human IgG on CM5 chip, rabbit TF-His in solution
T6 construct: also called rabbit TF ECD-His

pig TF-His = molecular target: T2, pig TF-His; experiment: SPR (Biacore), antibody captured by anti-human IgG on CM5 chip, pig TF-His in solution
h78-107_r.v2 = molecular target: T7, h78-107_r.v2 (human/rat chimera); experiment: live cell staining, flow cytometry
T7 construct: on HEK293 cells

h159-219_r = molecular target: T8, h159-219_r (human/rat chimera); experiment: live cell staining, flow cytometry
T8 construct: on HEK293 cells

h1-107_r = molecular target: T3, h1-107_r; experiment: live cell staining, flow cytometry
h1-77_r = molecular target: T9, h1-77_r (human/rat chimera); experiment: live cell staining, flow cytometry
T9 construct: Human TF with ECD residues 1-77 replaced by the rat segment; on HEK293 cells

rTF (rat TF) [5] = molecular target: T10, rTF (rat TF) (rat, UniProt P42533 29-252); experiment: live cell staining, flow cytometry
T10 construct: Expressed on the surface of transfected HEK293 cells

r141-194_h = molecular target: T11, r141-194_h (rat/human chimera, UniProt P42533 29-252); experiment: live cell staining, flow cytometry
T11 construct: on HEK293 cells

hTF = molecular target: T12, hTF (human, UniProt P13726 33-251); experiment: live cell staining, flow cytometry
T12 construct: also called human TF; human Tissue Factor

hTF_N171H_T197K = molecular target: T4, hTF_N171H_T197K; experiment: live cell staining, flow cytometry
rTF (rat TF) [6] = molecular target: T10, rTF (rat TF); experiment: live cell staining, flow cytometry; remark: listed apart in the source

T6 sequence (P24055 other isoform, or with tags, fused parts or gaps): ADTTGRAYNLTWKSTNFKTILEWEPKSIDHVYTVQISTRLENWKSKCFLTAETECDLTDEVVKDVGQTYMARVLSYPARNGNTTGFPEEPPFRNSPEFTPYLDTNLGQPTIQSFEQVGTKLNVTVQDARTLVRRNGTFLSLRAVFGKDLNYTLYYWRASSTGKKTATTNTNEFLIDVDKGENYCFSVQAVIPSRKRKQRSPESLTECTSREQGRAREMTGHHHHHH

Binder | % GM-CSF, 2.56 nM antibody, MDA-MB-231 cells + FVIIa [1] | % GM-CSF, 6.4 nM antibody, MDA-MB-231 cells + FVIIa [1] | % GM-CSF, 16 nM antibody, MDA-MB-231 cells + FVIIa [1] | % GM-CSF, 40 nM antibody, MDA-MB-231 cells + FVIIa [1] | % GM-CSF, 100 nM antibody, MDA-MB-231 cells + FVIIa [1] | % 25A binding [2] | binding result [3] | % 43Ea binding [4] | binding result (rabbit TF-His) | binding result (pig TF-His) | further results
anti-TF antibody 29D (antibody, human IgG1, V domains shown, Human IgG1) VH: QVQLVESGGGVVQPGRSLRLSCAASGFTFHSRGMHWVRQAPGKGLEWVAVITYDGINKYYADSVEGRFTISRDNSKNTLYLQMNSLRAEDTAVYYCARDGVYYGVYDYWGQGTLVTVSS VL: not shown | 38% | 15% | 7% | 6% | 5% | 70% | no binding | 64% | – | – | –
29D (antibody, human IgG1, V domains shown, Human IgG1; also called antibody 29D) VH: QVQLVESGGGVVQPGRSLRLSCAASGFTFHSRGMHWVRQAPGKGLEWVAVITYDGINKYYADSVEGRFTISRDNSKNTLYLQMNSLRAEDTAVYYCARDGVYYGVYDYWGQGTLVTVSS VL: not shown | – | – | – | – | – | – | – | – | no binding | no binding | –
anti-TF antibody 1G (antibody, human IgG1, V domains shown, Human IgG1) VH: EVQLLESGGGLVQPGGSLRLSCAASGFTFSSYAMAWVRQAPGKGLEWVSAISGSGGLTYYADSVKGRFTISRDNSKNTLYLQMNSLRAEDTAVYYCAKAPYGYYMDVWGKGTTVTVSS VL: not shown | 34% | 9% | 7% | 7% | 7% | 75% | no binding | 58% | – | – | –
1G (antibody, human IgG1, V domains shown, Human IgG1; also called antibody 1G) VH: EVQLLESGGGLVQPGGSLRLSCAASGFTFSSYAMAWVRQAPGKGLEWVSAISGSGGLTYYADSVKGRFTISRDNSKNTLYLQMNSLRAEDTAVYYCAKAPYGYYMDVWGKGTTVTVSS VL: not shown | – | – | – | – | – | – | – | – | no binding | no binding | –
54E (antibody, human IgG1, V domains shown, Human IgG1) VH: QVQLVQSGAEVKKPGASVKVSCKASGYTFANYYMHWVRQAPGQGLEWMGIINPSGGITVYAQKFQGRVTMTRDTSTSTVYMELSSLRSEDTAVYYCARGGSKVAALAFDIWGQGTMVTVSS VL: DIQMTQSPSSLSASVGDRVTITCQASQDISNSLNWYQQKPGKAPKLLIYDASNLETGVPSRFSGSRSGTDFTFTISSLQPEDIATYYCQQYNFHPLTFGGGTKVEIK | – | – | – | – | – | – | – | – | – | – | Percent antibody binding to TF construct relative to hTF (h78-107_r.v2): 62%; Percent antibody binding to TF construct relative to hTF (h159-219_r): 142%; Percent antibody binding to TF construct relative to hTF (h1-107_r): 0%; Percent antibody binding to TF construct relative to hTF (h1-77_r): 0%; Percent antibody binding to TF construct relative to hTF (rTF (rat TF) [5]): 0%; Percent antibody binding to TF construct relative to hTF (r141-194_h): 0%; Percent antibody binding to TF construct relative to hTF (hTF): 100%; Percent antibody binding to TF construct relative to hTF (hTF_N171H_T197K): 89%; Percent antibody binding to TF construct relative to hTF (rTF (rat TF) [6]): 0%
